{
  "source": "paper PMC7347389",
  "target": "Cys109 (UniProt position 128, ADAGFCYPPET)",
  "assay": "NMR",
  "conditions": "25 °C (general NMR condition 'unless stated otherwise'; not stated specifically for the pH series); reduced nDsbD (C103 and C109 as thiols), isolated domain, folded, cap loop closed",
  "data": [
    {"substance": "Thiol:disulfide interchange protein DsbD, N-terminal domain (nDsbD) (Escherichia coli)", "values": [
      {"measurement": "pKa", "value": "above 11"}
    ]}
  ]
}
